According to US20040043420A1, “Method of identifying conformation-sensitive binding peptides and uses thereof” (priority 2003, published 2004):
Values belong to the molecule of their own block, whether it stands above or below them.

How the values were obtained:
[1] = biological target: T1, glucocorticoid receptor (GR) (Homo sapiens, UniProt P04150); test: Yeast-based two-hybrid test of peptide interaction with full-length glucocorticoid receptor; assay type: cell-based
T1 construct: in the yeast based system using full-length receptor; expressed in transfected cells; host or cells: yeast
T1 sequence (P04150 1-777): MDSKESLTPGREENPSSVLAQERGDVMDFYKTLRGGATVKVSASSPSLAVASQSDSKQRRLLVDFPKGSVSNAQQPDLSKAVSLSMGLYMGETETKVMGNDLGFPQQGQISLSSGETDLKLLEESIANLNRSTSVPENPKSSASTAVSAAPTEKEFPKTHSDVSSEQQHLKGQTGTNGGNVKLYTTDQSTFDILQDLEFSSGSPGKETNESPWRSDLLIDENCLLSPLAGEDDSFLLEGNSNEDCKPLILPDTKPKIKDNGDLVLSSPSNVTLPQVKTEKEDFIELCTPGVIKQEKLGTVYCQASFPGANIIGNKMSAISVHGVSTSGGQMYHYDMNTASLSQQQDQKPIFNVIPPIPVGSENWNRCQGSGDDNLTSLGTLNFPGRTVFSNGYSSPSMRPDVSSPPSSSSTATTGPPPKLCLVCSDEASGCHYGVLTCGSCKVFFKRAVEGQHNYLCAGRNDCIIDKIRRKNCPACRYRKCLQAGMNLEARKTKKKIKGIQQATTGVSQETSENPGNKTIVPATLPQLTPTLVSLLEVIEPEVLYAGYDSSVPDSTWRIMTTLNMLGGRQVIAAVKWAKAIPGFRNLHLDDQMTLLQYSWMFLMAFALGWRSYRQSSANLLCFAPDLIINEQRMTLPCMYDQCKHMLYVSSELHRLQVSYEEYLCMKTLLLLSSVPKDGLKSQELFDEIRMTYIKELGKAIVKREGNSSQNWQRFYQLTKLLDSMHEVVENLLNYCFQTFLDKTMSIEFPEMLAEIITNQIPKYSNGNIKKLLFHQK
Description: (§1) We have performed a limited amount of in vivo screenings for peptides to GR in the yeast based system using full-length receptor and either dexamethasone or medroxyprogesterone acetate as ligands. We have a single peptide sequence that we have followed up on based on its specificity profile in yeast. This peptide was isolated on MPA liganded GR, and is termed GRMPA. Its sequence is as follows: […] (SEQ ID NO:268).

[2] = biological target: T1, glucocorticoid receptor (GR); test: Mammalian cell (Huh-7) based peptide/glucocorticoid receptor interaction assay, luciferase; conditions: all ligands (agonists, partial agonists, and antagonists)
Description: as §1
We have isolated numerous peptides using phage display to the GR ligand binding domain and have formatted cell based assays in mammalian cells for screening large compound sets. We have formatted the assay as stated above for 96-well plates and for 384-well plates. To format the assay to 384-well plates the number of cells per well were scaled down to 5,000 Huh-7 cells per well. Similar ratios of DNA constructs and lipection reagents were used in both assays for transfections prior to seeding the cells into the assay plates. We have also carried out a screen of a 60,000 compound set with one of the phage display isolated peptides in this mammalian cell based format. This peptide interacts with the glucocorticoid receptor in the presence of both agonists (e.g. fluticasone propionate and dexamethasone) and antagonists (RU486). For the compound screen cells were transfected in suspension with DNA constructs as described above prior to seeding 5,000 cells per well. […]

ER α [3] = biological target: T2, ER α (UniProt P03372 1-595, limits assumed); test: affinity of phage class for unliganded ER α
T2 construct: also called estrogen receptor α; ERα-ERE
T2 sequence (looked up): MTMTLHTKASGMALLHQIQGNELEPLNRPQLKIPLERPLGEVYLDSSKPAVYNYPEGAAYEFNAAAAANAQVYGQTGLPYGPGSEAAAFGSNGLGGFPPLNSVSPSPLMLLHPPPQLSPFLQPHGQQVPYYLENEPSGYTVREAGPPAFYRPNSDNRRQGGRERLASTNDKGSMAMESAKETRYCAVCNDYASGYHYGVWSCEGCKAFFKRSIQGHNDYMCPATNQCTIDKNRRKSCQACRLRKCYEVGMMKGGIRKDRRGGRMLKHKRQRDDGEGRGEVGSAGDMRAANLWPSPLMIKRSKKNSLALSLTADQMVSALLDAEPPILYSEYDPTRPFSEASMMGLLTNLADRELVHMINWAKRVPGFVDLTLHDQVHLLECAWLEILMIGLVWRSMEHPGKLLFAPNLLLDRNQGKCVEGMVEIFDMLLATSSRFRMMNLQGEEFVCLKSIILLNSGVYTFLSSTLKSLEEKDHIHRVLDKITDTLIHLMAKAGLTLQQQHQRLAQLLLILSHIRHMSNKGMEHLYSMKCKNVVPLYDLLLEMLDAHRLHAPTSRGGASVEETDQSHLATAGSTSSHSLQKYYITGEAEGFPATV

ER α [4] = biological target: T2, ER α; test: peptide probe binding to ERα, GW7604
ER α [5] = biological target: T2, ER α; test: peptide probe binding to ERα, Buffer
ER α [6] = biological target: T2, ER α; test: peptide probe binding to ERα, ICI 182,780
ER α [7] = biological target: T2, ER α; test: phage ELISA, ICI 182,780 1 µM
ER β [8] = biological target: T3, ER β (UniProt Q92731 1-530, limits assumed); test: peptide probe binding to ERβ, Estriol
T3 construct: In vitro; also called estrogen receptor β; ERβ-ERE

ER α [9] = biological target: T2, ER α; test: peptide probe binding to ERα, Raloxifene
ER α [10] = biological target: T2, ER α; test: peptide probe binding to ERα, Diethylstilbesterol
ER α [11] = biological target: T2, ER α; test: peptide probe binding to ERα, 4-OH Tamoxifen
ER α [12] = biological target: T2, ER α; test: peptide probe binding to ERα, 17α-Estradiol
ER α [13] = biological target: T2, ER α; test: peptide probe binding to ERα, Nafoxidine
ER β [14] = biological target: T3, ER β; test: peptide probe binding to ERβ, Clomiphene
ER β [15] = biological target: T3, ER β; test: phage ELISA, ICI 182,780 1 µM
ER β [16] = biological target: T3, ER β; test: peptide probe binding to ERβ, Raloxifene
ER β [17] = biological target: T3, ER β; test: peptide probe binding to ERβ, 17β-Estradiol
ER β [18] = biological target: T3, ER β; test: peptide probe binding to ERβ, GW 7604
ER β [19] = biological target: T3, ER β; test: peptide probe binding to ERβ, 17α-Estradiol
ER β [20] = biological target: T3, ER β; test: peptide probe binding to ERβ, Nafoxidine
ER β [21] = biological target: T3, ER β; test: peptide probe binding to ERβ, Buffer
ER α [22] = biological target: T2, ER α; test: peptide probe binding to ERα, Estriol
ER β [23] = biological target: T3, ER β; test: peptide probe binding to ERβ, Diethylstilbesterol
ER β [24] = biological target: T3, ER β; test: peptide probe binding to ERβ, 4-OH Tamoxifen
ER β [25] = biological target: T3, ER β; test: peptide probe binding to ERβ, ICI 182,780
ER α [26] = biological target: T2, ER α; test: peptide probe binding to ERα, 17β-Estradiol

T3 sequence (Q92731 whole entry): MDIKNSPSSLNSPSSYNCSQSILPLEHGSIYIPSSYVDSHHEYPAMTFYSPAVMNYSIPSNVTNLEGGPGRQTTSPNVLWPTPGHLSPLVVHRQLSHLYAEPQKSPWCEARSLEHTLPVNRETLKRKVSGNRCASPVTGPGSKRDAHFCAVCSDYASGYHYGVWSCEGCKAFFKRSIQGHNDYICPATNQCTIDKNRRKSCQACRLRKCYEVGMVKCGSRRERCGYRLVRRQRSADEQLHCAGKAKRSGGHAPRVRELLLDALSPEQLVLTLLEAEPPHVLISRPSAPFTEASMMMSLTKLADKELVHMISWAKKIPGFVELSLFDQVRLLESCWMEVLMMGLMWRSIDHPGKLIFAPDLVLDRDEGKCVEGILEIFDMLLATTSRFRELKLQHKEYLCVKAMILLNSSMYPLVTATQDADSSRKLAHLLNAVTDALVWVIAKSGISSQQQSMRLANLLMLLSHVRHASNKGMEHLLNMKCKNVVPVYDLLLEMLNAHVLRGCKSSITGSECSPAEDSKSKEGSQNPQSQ

Molecule: EFVARYGQLLGWRHPCS [GRMPA]
Interaction with GR in yeast in the presence of full agonists ([1]; fluticasone propionate and dexamethasone): not full agonists
Interaction with GR in yeast in the presence of partial agonists and antagonists ([1]; partial agonists MPA, cortivazol, deoxycorticosterone, antagonist RU486): interacted
Interaction with GR in mammalian cells in the presence of ligands [2]: interacted in the presence of all ligands

B1: #41 ER + estradiol (Table 3) (peptide)
peptide: HGPLTLNLLRSSGG
binding result (ER α [3]): binds

Other lines, results leading:

Equiv. (ER α [4]): 0%
Equiv. (ER α [5]): 0%
Equiv. (ER α [6]): -100%
phage ELISA grade (ER α [7]): 0
Equiv. (ER β [8]): -75%
Equiv. (ER α [9]): 0%
Equiv. (ER α [10]): 0%
Equiv. (ER α [11]): 100%
B2: T1-10 (peptide)
peptide: SRLPPSVFSMCGSEVCLSR
notes: also called 9T-β; 9Tβ

Equiv. (ER α [12]): 0%
Equiv. (ER α [4]): 0%
Equiv. (ER α [13]): 0%
Equiv. (ER β [14]): 13%
Equiv. (ER α [5]): 0%
Equiv. (ER α [6]): 0%
phage ELISA grade (ER β [15]): 0
Equiv. (ER β [16]): 0%
Equiv. (ER β [8]): 0%
Equiv. (ER α [9]): 0%
Equiv. (ER β [17]): 0%
Equiv. (ER β [18]): 0%
Equiv. (ER α [10]): 0%
Equiv. (ER β [19]): 0%
Equiv. (ER β [20]): 0%
Equiv. (ER β [21]): 0%
Equiv. (ER α [22]): 0%
Equiv. (ER β [23]): 0%
Equiv. (ER β [24]): 100%
Equiv. (ER β [25]): 0%
Equiv. (ER α [11]): 100%
Equiv. (ER α [26]): 0%
B3: 14T-β (peptide)
peptide: SSPGSREWFKDMLSR
notes: also called α/β V; AB5
